These results are taken from patent US20240002531A1 (ONO PHARMACEUTICAL, published 2024).

Holding throughout (experiment): peptide ELISA, OD 655 nm
Test [1] has as its target T1, S609A peptide (HER2 603-622 with S609A) (human).
T1 peptide: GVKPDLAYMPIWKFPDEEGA

The target of test [2] is T2, D618A peptide (HER2 603-622 with D618A) (human).
T2 peptide: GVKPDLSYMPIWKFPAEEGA

Test [3] addresses T3, V604A peptide (HER2 603-622 with V604A) (human).
T3 peptide: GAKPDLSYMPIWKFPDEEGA

In test [4] the target is T4, E619A peptide (HER2 603-622 with E619A) (human).
T4 peptide: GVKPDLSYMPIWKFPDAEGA

For test [5], the target named is T5, M611A peptide (HER2 603-622 with M611A) (human).
T5 peptide: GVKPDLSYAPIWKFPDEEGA

Test [6] addresses T6, K615A peptide (HER2 603-622 with K615A) (human).
T6 peptide: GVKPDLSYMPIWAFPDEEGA

Test [7] has as its target T7, HER2_604-622C peptide (NH2-VKPDLSYMPIWKFPDEEGAC-COOH) (human).
T7 construct: KLH was added for immunisation, the peptide itself was coated in the screening ELISA
T7 peptide: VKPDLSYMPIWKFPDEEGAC

For test [8], the target named is T8, E620A peptide (HER2 603-622 with E620A) (human).
T8 peptide: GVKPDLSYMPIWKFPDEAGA

Test [9] concerns the target T9, P617A peptide (HER2 603-622 with P617A) (human).
T9 peptide: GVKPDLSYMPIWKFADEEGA

Test [10] concerns the target T10, Y610A peptide (HER2 603-622 with Y610A) (human).
T10 peptide: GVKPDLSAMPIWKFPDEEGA

The target in test [11] is T11, G603A peptide (HER2 603-622 with G603A) (human).
T11 peptide: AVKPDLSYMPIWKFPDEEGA

Test [12] has as its target T12, D607A peptide (HER2 603-622 with D607A) (human).
T12 peptide: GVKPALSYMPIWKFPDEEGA

Test [13] has as its target T13, L608A peptide (HER2 603-622 with L608A) (human).
T13 peptide: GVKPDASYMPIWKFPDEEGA

For test [14], the target named is T14, F616A peptide (HER2 603-622 with F616A) (human).
T14 peptide: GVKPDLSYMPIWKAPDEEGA

Test [15] concerns the target T15, W614A peptide (HER2 603-622 with W614A) (human).
T15 peptide: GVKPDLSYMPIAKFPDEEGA

Test [16] deals with T16, HER2 peptide p603-622 (amino acids 603 to 622 of human HER2) (human).
T16 construct: Synthetic peptide; also called wild-type HER2 peptide
T16 peptide: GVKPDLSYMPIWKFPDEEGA

For test [17], the target named is T17, K605A peptide (HER2 603-622 with K605A) (human).
T17 peptide: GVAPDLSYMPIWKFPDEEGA

Test [18] concerns the target T18, P606A peptide (HER2 603-622 with P606A) (human).
T18 peptide: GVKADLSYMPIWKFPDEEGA

The target in test [19] is T19, I613A peptide (HER2 603-622 with I613A) (human).
T19 construct: also called 1613A
T19 peptide: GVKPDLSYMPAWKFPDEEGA

Test [20] concerns the target T20, P612A peptide (HER2 603-622 with P612A) (human).
T20 peptide: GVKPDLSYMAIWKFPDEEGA

Test [21] concerns the target T21, G621A peptide (HER2 603-622 with G621A) (human).
T21 peptide: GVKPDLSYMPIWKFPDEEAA

B1: H2Mab-299 antibody (antibody, mouse IgG1, kappa, V domains shown)
VH: EVQLVESGGGLVQPGGSLKLSCAASGFTFNIYGIFWVRQTPDKRLELVATIHSNGGRIYYPDSVKGRFTISRDNAKNTLYLQMSSLKSEDTAMYYCAREGGDYWGQGTSVTVSS
VL: DIVMTQSHKVMATSVGDRVSITCKASQDVGTAVAWYQQKPGQSPKLLIYWASTRHTGVPDRFTGSGSGTDFTLTINNVLSEDLVDYFCQQYRRYPLTFGAGTKLELKR
On to B1, for which the binding result in [1], in test [2], in test [3], in [4], in test [5] and in test [6] was “binds” throughout. In addition, the binding result in [7], in [8], in test [9], in test [10], in test [11] and in test [12] was “binds” in each case. In addition, the binding result in test [13] is given as “binds”; in test [14], “no binding (tested: 10 ug/ml)”; in [15], “binds”; in test [16], “binds”; in test [17], “binds”; in test [18], “binds”. For the same molecule, the binding result in test [19], in test [20] and in [21] was “binds” in each case.
